IC50 data for four molecules are collected here from article PMC5988292 (2018).

B1: PH domain from p190RhoGEF (domain or fragment)
chain: TLLYDGLVYWKTATGRFKDILALLLTDVLLFLQEKDQKYIFAAVDQKPSVISLQKLIAREVANEERGMFLISASSAGPEMYEIHTNSKEERNNWMRRIQQAVE
B2: p115-PH (PH domain of p115RhoGEF) (domain or fragment)
chain: KLVHEGPLTWRVTKDKAVEVHVLLLDDLLLLLQRQDERLLLKSHSRTLTPTPDGKTMLRPVLRLTSAMTREVATDHKAFYVLFTWDQEAQIYELVAQTVSERKNWCALITETAG
B3: PRG-PH (non-fluorescent PH domain of PDZRhoGEF) (domain or fragment)
chain: VKQTENRHRLEGYQKRLDATALERASNPLAAEFKSLDLTTRKMIHEGPLTWRISKDKTLDLHVLLLEDLLVLLQKQDEKLLLKCHSKTAVGSSDSKQTFSPVLKLNAVLIRSVATDKRAFFIICTSKLGPPQIYELVALTSSDKNTWMELLEEAVRNATRHP
B4: PH domain from LARG (domain or fragment)
chain: KMIHEGPLVWKVNRDKTIDLYTLLLEDILVLLQKQDDRLVLRCHSKILASTADSKHTFSPVIKLSTVLVRQVATDNKALFVISMSDNGAQIYELVAQTVSEKTVWQDLICRMAA

In general, IC50 refers to the concentration that inhibits the measured activity by half. A lower IC50 goes with greater potency.

Sequence of YFP-RhoA·GTPγS (P61586 whole entry): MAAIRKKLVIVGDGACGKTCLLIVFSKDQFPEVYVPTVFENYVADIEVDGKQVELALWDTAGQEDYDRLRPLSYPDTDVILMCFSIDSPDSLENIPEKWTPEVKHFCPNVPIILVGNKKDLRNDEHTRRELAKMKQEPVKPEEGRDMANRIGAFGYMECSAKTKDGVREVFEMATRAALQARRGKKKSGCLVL

This assay concerns the target YFP-RhoA·GTPγS (UniProt P61586 1-193). Nature of the assay: FRET; competition with CFP-PRG-PH.
On to B1, for which the half-maximal inhibitory concentration (IC50) turned out to be 7.2 µM. In other words, the single-digit micromolar range.
Molecule B2 displayed a half-inhibitory concentration (IC50) of 170 µM. This IC50 is about 24-fold higher than that of the molecule before.
Regarding B3, the 50% inhibitory concentration (IC50) came to 3.4 µM.
B4: the 50% inhibitory concentration (IC50) was determined as 10.5 µM.
